Key:
[1] = biological target: bcPadR1, PadR-like transcriptional regulator from Bacillus cereus ATCC 14579 (product of gene locus BC4206) (Bacillus cereus ATCC 14579); assay: SEC; analytical gel filtration, Superdex 200 PC 3.2/30; 20 mM Tris-HCl pH 8.0, 200 mM NaCl, 1 mM EDTA, 1 mM dithiothreitol; apparent molecular weight against five marker proteins
[2] = biological target: bcPadR2, PadR-like transcriptional regulator from Bacillus cereus ATCC 10987 (product of gene locus BCE3449) (Bacillus cereus ATCC 10987); assay: as above

stoichiometry N [2] | Substance | stoichiometry N [1]
– | bcPadR1, PadR-like transcriptional regulator from Bacillus cereus ATCC 14579 (product of gene locus BC4206) (natural protein) | 2
2 | bcPadR2, PadR-like transcriptional regulator from Bacillus cereus ATCC 10987 (product of gene locus BCE3449) (natural protein) | –

Source: PMC3506622
